Each block holds one substance with its values, some of them ahead of it.
Experiments:
htau40 seeds (human) = htau40 seeds (human) (UniProt P10636)
K18 fibril seeds (human) [1] = target: K18 fibril seeds (human) (UniProt P10636)
[2] = target: AD tau filaments (in AD brain homogenate) (human (endogenous in AD brain tissue))
K18 fibril seeds (human) [3] = target: K18 fibril seeds (human) (UniProt P10636); remark: listed apart in the source
[4] = target: Atto633-labeled 3R MAP2 monomer (UniProt P11137); test: fluorescence polarisation; fluorescence anisotropy; 100 nM Atto633-labeled monomer titrated with K18 seeds (0–20 μM monomer equivalents), equilibrated 16 h at 22 °C; one-site binding model; apparent KD, based on monomer equivalents of seeds, not seed concentrations
[5] = target: Atto633-labeled 4R MAP2 monomer (UniProt P11137); test: as above
[6] = target: Atto633-labeled K18 monomer (human) (UniProt P10636); test: as above

4R MAP2, sequence (P11137 other isoform, or with tags, fused parts or gaps): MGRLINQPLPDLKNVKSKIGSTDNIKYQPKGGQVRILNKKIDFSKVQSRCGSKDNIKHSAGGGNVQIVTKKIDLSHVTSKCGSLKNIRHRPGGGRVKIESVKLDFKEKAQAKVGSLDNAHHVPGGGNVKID
K18 fibril seeds (human), sequence (P10636 561-689): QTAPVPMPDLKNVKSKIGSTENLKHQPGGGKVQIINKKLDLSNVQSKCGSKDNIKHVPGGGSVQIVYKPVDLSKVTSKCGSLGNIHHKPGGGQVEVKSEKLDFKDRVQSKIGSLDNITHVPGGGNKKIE
K18 fibril seeds, sequence (P10636 561-689): as above
htau40 seeds (human), sequence (P10636 other isoform, or with tags, fused parts or gaps): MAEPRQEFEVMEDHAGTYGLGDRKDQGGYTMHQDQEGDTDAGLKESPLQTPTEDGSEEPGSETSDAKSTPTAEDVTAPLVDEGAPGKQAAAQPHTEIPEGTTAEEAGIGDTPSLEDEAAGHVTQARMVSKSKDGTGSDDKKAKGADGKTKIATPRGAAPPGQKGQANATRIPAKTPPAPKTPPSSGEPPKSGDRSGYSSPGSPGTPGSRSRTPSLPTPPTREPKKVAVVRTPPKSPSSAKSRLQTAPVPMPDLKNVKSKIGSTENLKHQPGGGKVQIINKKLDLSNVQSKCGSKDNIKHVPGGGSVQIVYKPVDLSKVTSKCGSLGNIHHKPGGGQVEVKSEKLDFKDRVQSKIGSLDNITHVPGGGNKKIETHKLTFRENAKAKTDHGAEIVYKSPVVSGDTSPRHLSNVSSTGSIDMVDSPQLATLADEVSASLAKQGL

tau fibril growth (10 μM htau40 monomers on 1% htau40 seeds, 21 h, 37 °C; sedimentation, SDS-PAGE) with 10 μM 3R MAP2, relative to the reaction without MAP2 set to 100% (% of growth without MAP2) (htau40 seeds (human)): 56 | IC50 of inhibition of K18-seeded aggregation of 10 μM K18 monomers (10% seeds, 6 h, 37 °C; sedimentation, SDS-PAGE, Coomassie; 12.5 nM-25 μM 3R MAP2); blocks recruitment of K18 monomers onto K18 seeds (K18 fibril seeds (human) [1]): 2200 nM | amplification of tau fibrils from AD brain homogenate (5 μM htau40 monomer, cycles of shaking and growth for 30 h; sedimentation, SDS-PAGE, densitometry) with 5 μM 3R MAP2 [2]: > 80 % reduction | percent of HEK293 cells expressing htau40P301S-EYFP that contain tau puncta 24 h after transduction of K18 seeds preincubated with 3R MAP2 (25% without MAP2) (K18 fibril seeds (human) [3]): 11 % of cells
Substance: 3R MAP2 (from UniProt P11137-4 362-490) (domain or fragment)

Kd [4]: 1600 nM | Kd [5]: 1300 nM | Kd [6]: 5400 nM
Substance: K18 fibril seeds (from UniProt P10636-8 244-372)

tau fibril growth (10 μM htau40 monomers on 1% htau40 seeds, 21 h, 37 °C; sedimentation, SDS-PAGE) with 10 μM 4R MAP2, relative to the reaction without MAP2 set to 100% (% of growth without MAP2) (htau40 seeds (human)): 25 | IC50 of inhibition of K18-seeded aggregation of 10 μM K18 monomers (10% seeds, 6 h, 37 °C; sedimentation, SDS-PAGE, Coomassie; 12.5 nM-15 μM 4R MAP2); blocks recruitment of K18 monomers onto K18 seeds (K18 fibril seeds (human) [1]): 1100 nM | amplification of tau fibrils from AD brain homogenate (5 μM htau40 monomer, cycles of shaking and growth for 30 h; sedimentation, SDS-PAGE, densitometry) with 5 μM 4R MAP2 [2]: > 80 % reduction | percent of HEK293 cells expressing htau40P301S-EYFP that contain tau puncta 24 h after transduction of K18 seeds preincubated with 4R MAP2 (25% without MAP2) (K18 fibril seeds (human) [3]): 6.4 % of cells
Substance: 4R MAP2 (from UniProt P11137-4 362-490) (domain or fragment)

— paper PMC10404690
